In PMC11099347 (Cell Genomics, 2024):
Values belong to the binder of their own block, whether it stands above or below them.

Biological target: T1, GST-tagged wild-type NRDE2 (human, UniProt Q9H7Z3 1-1164)
T1 sequence: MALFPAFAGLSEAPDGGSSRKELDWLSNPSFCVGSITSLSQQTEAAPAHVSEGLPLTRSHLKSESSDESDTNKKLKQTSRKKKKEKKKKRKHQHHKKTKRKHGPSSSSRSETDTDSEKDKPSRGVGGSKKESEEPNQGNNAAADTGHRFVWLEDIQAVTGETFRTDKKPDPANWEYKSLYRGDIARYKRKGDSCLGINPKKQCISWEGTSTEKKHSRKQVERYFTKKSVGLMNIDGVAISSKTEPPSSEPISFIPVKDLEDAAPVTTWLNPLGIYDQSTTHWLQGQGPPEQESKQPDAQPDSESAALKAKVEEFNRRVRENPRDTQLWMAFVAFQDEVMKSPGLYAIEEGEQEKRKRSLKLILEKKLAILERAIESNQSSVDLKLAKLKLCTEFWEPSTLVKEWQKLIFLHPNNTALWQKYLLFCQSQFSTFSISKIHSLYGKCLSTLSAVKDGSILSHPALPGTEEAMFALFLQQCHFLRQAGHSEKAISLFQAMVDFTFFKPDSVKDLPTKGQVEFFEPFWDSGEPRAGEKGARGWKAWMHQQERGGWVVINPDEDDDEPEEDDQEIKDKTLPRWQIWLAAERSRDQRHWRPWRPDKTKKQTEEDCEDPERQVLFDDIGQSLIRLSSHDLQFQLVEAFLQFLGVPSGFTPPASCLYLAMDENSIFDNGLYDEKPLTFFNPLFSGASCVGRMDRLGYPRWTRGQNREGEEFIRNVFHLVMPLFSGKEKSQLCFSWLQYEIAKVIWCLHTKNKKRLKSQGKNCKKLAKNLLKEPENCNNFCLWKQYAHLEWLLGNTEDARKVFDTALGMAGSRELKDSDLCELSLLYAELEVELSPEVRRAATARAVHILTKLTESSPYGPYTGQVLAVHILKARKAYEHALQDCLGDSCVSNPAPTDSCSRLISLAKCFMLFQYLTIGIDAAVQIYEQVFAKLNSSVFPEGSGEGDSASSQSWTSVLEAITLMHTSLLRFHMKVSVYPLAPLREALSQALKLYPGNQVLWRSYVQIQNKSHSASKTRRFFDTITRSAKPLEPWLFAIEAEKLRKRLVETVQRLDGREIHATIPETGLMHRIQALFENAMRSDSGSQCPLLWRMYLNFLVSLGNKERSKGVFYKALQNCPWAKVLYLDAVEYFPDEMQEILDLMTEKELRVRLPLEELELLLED
Test: pull-down

binding result: binds
B1: His-tagged CK2A2 (natural protein)
chain: MPGPAAGSRARVYAEVNSLRSREYWDYEAHVPSWGNQDDYQLVRKLGRGKYSEVFEAINITNNERVVVKILKPVKKKKIKREVKILENLRGGTNIIKLIDTVKDPVSKTPALVFEYINNTDFKQLYQILTDFDIRFYMYELLKALDYCHSKGIMHRDVKPHNVMIDHQQKKLRLIDWGLAEFYHPAQEYNVRVASRYFKGPELLVDYQMYDYSLDMWSLGCMLASMIFRREPFFHGQDNYDQLVRIAKVLGTEELYGYLKKYHIDLDPHFNDILGQHSRKRWENFIHSENRHLVSPEALDLLDKLLRYDHQQRLTAKEAMEHPYFYPVVKEQSQPCADNAVLSSGLTAAR

binding result: binds
B2: His-tagged CK2B (natural protein)
chain: not shown
